Measured values from patent US20050053993A1, “Uses of an endothelial cell receptor” (priority 2002, published 2005).

Experiments:
HMVEC = HMVEC (Homo sapiens, UniProt P11021); assay: VEGF-stimulated HMVEC migration (Boyden chamber); format: cell-based; details: read-out: inhibition of endothelial cell migration
Method: Endothelial cell migration assays: The effect of rK5 on endothelial cell migration was determined by two different methods. The first assay was performed in a 96 well plate with a cellulose membrane between the upper and lower chambers. HMVEC were starved of growth factors overnight, labeled with fluorescent calcein AM (50-100 nM), plated into a 96 well migration chamber (2.9×10^4/well) (Neuroprobe, Gaitherburg, Md.), and stimulated to migrate with VEGF (5 ng/mL). After 4 h, migrated cells were measured by fluorescence (Frevert C W, Wong V A, Goodman R B, Goodwin R, Martin T R. Rapid fluorescence-based measurement of neutrophil migration in vitro. J Immunol Methods. 1998 Apr. 1;213(1):41-52). In a second assay for cellular migration, a standard Boyden chamber was used (Polyerini, P. J., Bouck, N. P. & Rastinejad, F. Assay and purification of naturally occurring inhibitor of angiogenesis. Meth. Enzymol. 198, 440-450 (1991)). HMVEC cells were starved overnight in DME containing 0.1% bovine serum albumin (BSA) and harvested by scraping and resuspended in DME with 0.1% BSA at 1.5×10^6 cells per ml. Cells were added to the bottom of a 48-well, Boyden chamber. The chamber was assembled and inverted, and cells were allowed to attach for 2 hours at 37° C. to polycarbonate chemotaxis membranes (5 μm pore size) that had been soaked in 0.1% gelatin overnight and dried. The chamber was re-inverted, test substances, including activators were added to the wells of the upper chamber and the apparatus was incubated for 4 hours at 37° C. Growth factors were used, where indicated, at concentrations determined in preliminary experiments to give equivalent migration responses of about 100 cells migrated/high powered field (400×). […] Membranes were recovered, fixed and stained and the number of cells that had migrated to the upper chamber per 10 high power fields counted. Background migration to DME+0.1% BSA was subtracted and the data reported as the number of cells migrated per 10 high power fields (400×) or, when results from multiple experiments were combined, as the percent inhibition of migration compared to the positive growth factor control (Polyerini, P. J., Bouck, N. P. & Rastinejad, F. Assay and purification of naturally occurring inhibitor of angiogenesis. Meth. Enzymol. 198, 440-450 (1991)).

B16F10 = assay: Tumor cell proliferation, B16F10; format: cell-based; details: B16F10, 72 hours
Method: (§1) Cell Proliferation Assay. The effect of rK5 and rK5 peptides on endothelial cells were assessed using a proliferation assay with 1% BSA and 3 ng/ml bFGF in serum-free media. Relative cell numbers in each well of a 96 well microplate after incubation for 72 hours in the absence or presence of inhibitors were determined by using the AQueous cell proliferation assay (Promega, San Luis Obispo, Calif.). For all other cell lines tested for proliferation, minimal growth media was used (Cao, Y., Ji, R., Davidson, D., Schaller, J., Marti, D., Sohndel, S., McCance, S., O'Reilly, M., Llinas, M., and Folkman, J. Kringle domains of human angiostatin. Characterization of the anti-proliferative activity on endothelial cells. (1996) J. Biol. Chem. 271, 29461-29467). Results are presented as the percent inhibition of control cell (bFGF-induced) proliferation.

[1] = system: tumor or primary cell proliferation; assay: Tumor or primary cell proliferation; format: cell-based; details: at concentrations as high as 100 μM
Method: as §1

[2] = system: EAHY cell surface proteins (~75 kDa and ~95 kDa); assay: S-tag-K5 affinity pull-down of biotinylated EAHY surface proteins; format: binding; details: 100 nM S-tag-K5; 1 μM peptides, 10 μM cold rK5
Method: The second method used to identify cell surface rK5 binding proteins was described previously (Zhang, J. C., et al, supra). Surface proteins on 4×10^6 EaHy cells were labeled with NHS-biotin. The cells were washed and lysed (M-Per, Pierce). Cell lysates were mixed with S-tag K5 for 1 hour at room temperature. S-tag K5 bound proteins were precipitated with S-protein agarose (Pierce). Bound proteins were eluted with excess rK5 or with excess PRKLYDY (SEQ ID NO:1) peptide. Eluted proteins were visualized with avidin-HRP and a chemiluminescent substrate. Mass spectroscopic analysis was used to identify the major protein bands.
In particular, surface proteins on 1×10^6 EAHY cells were labeled with NHS-biotin. The cells were washed 3× with PBS and lysed with M-pur. Cell lysates were mixed with (A) 100 nM S-tag-K5, (B) 100 nM S-tag-K5 plus 1 μM PRKLYDY, (C) 100 nM S-tag-K5 plus 10 μM cold rK5 and (D) 100 nM S-tag-K5 and N-terminal K5 peptide at 1 μM for 1 hour at room temperature. The K5 binding proteins were precipitated with S-protein-agarose. Bound proteins were eluted with 50 mM glycine buffer at pH 3.0 and run for PAGE analysis. Surface proteins (biotinylated) that bind K5 were visualized with avidin-HPR and a chemiluminescent substrate.

[3] = system: HT1080 human fibrosarcoma cells; assay: Apoptosis of HT1080 cells under hypoxia; format: cell-based
Method: FIG. 15A is a graph showing the effect of rK5 on HT1080 human fibrosarcoma cells under hypoxic and non-hypoxic conditions. […] cells were plated on slides overnight with complete medium. Control slides were put in the incubator at 5% CO2 and 37° C. The other slide of cells was put in a hypoxic chamber with 95% N2, 5% CO2 at 37° C. for 24 hours. GRP78 on the cell surface was detected by IHC analysis with a polyclonal antibody to GRP78 conjugated to horseradish peroxidase. The GRP78 was visualized with the DAB reagent displaying a brown color.
FIG. 15B is a graph showing the effect of rK5 on induction of apoptosis in various tumor cell lines tested under hypoxic conditions. Cells were plated in 96-well plates overnight. Half the plates were put in hypoxic chambers overnight at 37° C. with and without 500 nM rK5. Increased apoptosis was shown by an ELISA technique that measures the number of nucleosome fragments. The apoptotic index was calculated from the apoptosis rate of control cells (without K5 and with or without hypoxia). The samples were run in quadruplicate.
FIG. 15C is a graph showing the effect of rK5 on hypoxia-stressed HT1090 cells transfected with an siRNA and a scrambled siRNA to GRP78. The transfected cells were plated in 96 well plates and placed at 5% CO2 and 37° C. rK5 (500 nM) was added to the cells and half were incubated in an hypoxic chamber with 95% N2, 5% CO2 at 37° C. and half were incubated at 5% CO2 and 37° C. for 24 hours. Apoptosis was shown by an ELISA technique mentioned above. The samples were run in quadruplicate.

Sequence of HMVEC (P11021 19-654): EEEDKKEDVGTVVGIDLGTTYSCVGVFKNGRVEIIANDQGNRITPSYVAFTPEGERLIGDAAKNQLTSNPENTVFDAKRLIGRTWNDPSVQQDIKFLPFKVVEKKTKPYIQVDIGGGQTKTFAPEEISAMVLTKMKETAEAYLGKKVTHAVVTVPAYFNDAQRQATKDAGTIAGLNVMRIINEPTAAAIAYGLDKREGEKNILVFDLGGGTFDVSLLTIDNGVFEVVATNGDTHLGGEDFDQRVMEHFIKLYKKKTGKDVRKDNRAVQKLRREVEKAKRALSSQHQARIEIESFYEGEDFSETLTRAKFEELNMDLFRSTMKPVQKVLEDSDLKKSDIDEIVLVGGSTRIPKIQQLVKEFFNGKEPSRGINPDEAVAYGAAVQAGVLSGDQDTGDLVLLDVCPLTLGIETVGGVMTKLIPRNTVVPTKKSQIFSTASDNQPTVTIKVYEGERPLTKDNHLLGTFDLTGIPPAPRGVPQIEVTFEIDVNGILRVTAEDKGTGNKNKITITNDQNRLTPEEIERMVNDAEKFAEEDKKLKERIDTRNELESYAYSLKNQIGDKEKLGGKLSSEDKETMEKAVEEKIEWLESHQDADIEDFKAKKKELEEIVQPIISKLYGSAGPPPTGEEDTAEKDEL

IC50 (HMVEC): 250 pM
IC50 values for cell proliferation (B16F10): >100 µg/mL
B1: rK5: recombinant kringle 5 fragment of human plasminogen (residues 450-543), expressed in E. coli or yeast (protein)
chain: LLPDVETPSEEDCMFGNGKGYRGKRATTVTGTPCQDWAAQEPHRHSIFTPETNPRAGLEKNYCRNPDGDVGGPWCYTTNPRKLYDYCDVPQCAA
inhibition of tumor or primary cell proliferation [1]: did not cause inhibition
competition of protein binding to the S-tag K5 column [2]: competed
activity on hypoxia-stressed GRP78 siRNA transfected HT1080 cells ([3]; hypoxia, GRP78 siRNA transfected, rK5 500 nM): significantly eliminated the activity of rK5
increase in apoptosis under hypoxic conditions ([3]; hypoxic conditions, within 24 hours): greater than two-fold increase in apoptosis
effect on cellular apoptosis without hypoxia ([3]; without hypoxia): no significant effect
